{
  "source": "patent US20200270310A1",
  "about": "“MAFG AS A POTENTIAL THERAPEUTIC TARGET TO RESTORE CHEMOSENSITIVITY IN PLATINUM-RESISTANT CANCER CELLS” (FUNDACÓIN PARA LA INVESTIGACIÓN BIOMÉDICA DEL HOSPITAL …, priority 2017, published 2020)",
  "molecules": {"B1": {"name": "apMAFG3F (ssDNA)", "DNA": "GCGGATGAAGACTGGTGTGCTGTGCTTTGACGACTGTCTAGTGGGTTTTCTTCCCCCGGCCCTAAATACGAGCAAC"}, "B2": {"name": "GCGGATGAAGACTGGTGTGCTGTGCTTTGACGACTGTCTAGTGGGTTTTCTTCCCCCGGCCCTAAATACGAGCAAC (nucleic acid)", "chain": "GCGGATGAAGACTGGTGTGCTGTGCTTTGACGACTGTCTAGTGGGTTTTCTTCCCCCGGCCCTAAATACGAGCAAC", "modifications": "chemistry not given here", "notes": "DNA aptamer selected against the MAFG protein by SELEX"}, "B3": {"name": "apMAFG11F (ssDNA)", "DNA": "GCGGATGAAGACTGGTGTCGCGAACCGGGTTACTTTTGTCGCGGGTCGTCGGATCTGTGCCCTAAATACGAGCAAC"}, "B4": {"name": "GCGGATGAAGACTGGTGTCGCGAACCGGGTTACTTTTGTCGCGGGTCGTCGGATCTGTGCCCTAAATACGAGCAAC (nucleic acid)", "chain": "GCGGATGAAGACTGGTGTCGCGAACCGGGTTACTTTTGTCGCGGGTCGTCGGATCTGTGCCCTAAATACGAGCAAC", "modifications": "chemistry not given here", "notes": "as for B2"}, "B5": {"name": "apMAFG6F (ssDNA)", "DNA": "GCGGATGAAGACTGGTGTCGATGCATGTGTAGTGCATTTCGAGCCGTTCTATTGGTGTGCCCTAAATACGAGCAAC"}},
  "key": {"BSA": {"target": "BSA (UniProt P02769 P02769:25-607)", "experiment": "ELONA; background control; MAFG signal up to four times that of BSA", "conditions": "label: 5' digoxigenin"}, "[1]": {"test_system": "human MAFG peptides M1-M10", "experiment": "ELONA of aptamers with 10 MAFG peptides", "type": "binding", "conditions": "digoxigenin aptamer 20 nM, 1 μg peptide, absorbance at 405 nm", "description": "(§1) FIG. 9. Characterization of the interaction of aptamers with MAFG. ELONAS in which the Aptamers bound to digoxigenin (20 nM) were incubated 1 hour at 37° C. with 10 peptides (1 μg) previously attached to the plate overnight. After incubating 1 hour with antidigoxigenin-Peroxidase 1/1000, ABTS was added and at 10 minutes the absorbance at 405 nm was measured.\nIn order to identify compounds of the invention and starting from the amino acidic sequence of human MAFG (NCBI Reference Sequence: NP_116100.2) of: SEQ ID NO 2: […]); we designed the following 10 peptides (please refer to table below):\nPeptide M4, amino acids 49-68 corresponds to the basic MAFG region containing the tyrosine residue (Tyr64), as well as the arginine residue (Arg57) required for binding to the DNA, in addition to a nuclear localization signal."}, "MAFG-Myc": {"target": "T1, MAFG-Myc (Homo sapiens, UniProt O15525)", "T1 construct": "Myc (C); DDK (FLAG)", "experiment": "Enzyme-linked oligonucleotide assay (ELONA) of aptamers and aptamer populations", "type": "binding", "conditions": "for affinity against MAFG: Example 1, individual aptamers; for binding capacity to the target: Example 3, individual sequences from SEL6MAFG; for binding signal relative to BSA protein: individual sequences from SEL6MAFG", "description": "FIG. 4. Analysis of the affinity of the aptamers against MAFG. (A) Quantification of aptamer-MAFG complexes by qPCR comparing absence (dot pattern) or presence (filled pattern) of MAFG protein. […] Bars represent the mean±SEM of 2-3 experiments (B) Specificity binding assay of aptamers to MAFG performed by ELONA. MAFG-myc was plated at 50ng/well in 96-well plates followed by incubation with 5′ digoxigenin-labeled aptamers from RND40, SEL3MAFG and SEL6MAFG. The figure represents the mean±SEM of 3 independent experiments. p<0.01. (C) Aptacytochemistry in HEK-293T cells transiently transfected with MAFG-myc. Cells overexpressing MAFG were incubated with 5′ Alexafluor 488-conjugated aptamers from RND40, SEL3MAFG or SEL6MAFG (upper panel) or Myc antibody (lower panel). Confocal microscopy images corresponding to the staining of nuclei with Hoechst (blue), antibodies (red), and aptamers (green) are shown. Arrowhead indicates positive cells. Bar=13 μm. (D) Study of individual aptamers affinity performed by ELONA. Recombinant MAFG was plated at 50 ng/well in 96-well plates followed by incubation with 5′ digoxigenin-labeled individual aptamers apMAGF3F, apMAFG6F and apMAFG11F. The figure represents the mean±SD of 2 independent experiments. (E) Secondary structures of aptamers apMAGF3F, apMAFG6F and apMAFG11F obtained by bioinformatics sequence analysis using the mFold software taking into account the lower free energy (AG).\n(ii) Enzyme-linked oligonucleotide assay (ELONA): Aptamers were labeled by PCR using 5′ digoxigenin-labeled F3/5′ digoxigenin-labeled R3 primers (IBA Life Sciences). To assess the enrichment of the selected population and the affinity of the individual aptamers for the target, MAFG-Myc (50 ng) was incubated with the rounds 3, 6 of aptamers or the RND40 library. OD405nm values were determined using a SpectraFluor microplate reader (TECAN, Barcelona, Spain)."}, "[2]": {"target": "T2, MAFG in H23S and H23R cells (Homo sapiens, UniProt O15525)", "T2 construct": "endogenous in cells; host or cells: H23S and H23R (NSCLC cells, fixed)", "experiment": "Aptacytochemistry with digoxigenin-labeled individual aptamers", "type": "cell-based", "description": "Following the methodology described above, H23R cells were incubated with 6 pmol of digoxigenin-labeled aptamers (IBA Life Sciences) in selection buffer for 1 hour at room temperature. Subsequently, cells were washed three times with PBS and incubated with anti-digoxigenin conjugated with 5′ AlexaFluor 488 (R&D systems, USA) at 1/500 dilution in blocking buffer for 1 hour at room temperature, as secondary antibody. Finally, the cells were mounted on glass slides using glycerol-buffer containing p-phenylenediamine and 1/750 dilution of Dapi for nuclear staining. Controls were made by omitting the aptamer. Colocalization was assessed by confocal microcopy as described in (iii)."}, "[3]": {"target": "T3, MAFG in tumor samples of patients with lung cancer (Homo sapiens, UniProt O15525)", "T3 construct": "from tissue; host or cells: Formalin-fixed paraffin-embedded NSCLC tumour sections", "experiment": "Aptahistochemistry in NSCLC tumor samples", "conditions": "20 tumor samples classified by MAFG mRNA levels", "description": "The formalin-fixed and paraffin-embedded tissue sections of patients with lung cancer were baked 15 minutes at 60° C. Deparaffinization was performed by two washes of xylene for 10 minutes each. Tissue sections were rehydrated by a sequential wash in 100%, 90%, 80%, 70% ethanol and distilled water for 5 minutes each. Antigen retrieval was achieved by heat treatment in a pressure cooker for 2 minutes in 10 mM citrate buffer (pH 6.5). Endogenous peroxidase activity of tissues was blocked with 0.3% […]. The primary binding reaction was performed with 10 pmol/ml of digoxigenin-conjugated aptamers overnight at room temperature. The secondary binding reaction was performed with anti-digoxigenin conjugated with POD (Roche; 1/200 dilution in TBS) for 45 minutes. Staining was done using the Immunoperoxidase DAB kit (Master Diagnostica), according to the manufacturer's instructions. The sections were counterstained with hematoxylin.\nWe then took advantage of the aptacytochemistry to perform an aptamer-based histochemistry in 20 tumor samples from our cohort of patients with known mRNA levels of MAFG. […] To determine the correlation between the aptahistochemistry and the mRNA levels of MAFG, we calculated the percentage of cells with positive staining from the total number of cells computed at four different areas randomly selected for each sample."}, "H23R cells": {"test_system": "H23R cells", "experiment": "Viability to CDDP after aptamer transfection (resistance index)", "type": "cell-based, human", "conditions": "aptamer 25 nM, CDDP 72 h", "description": "FIG. 6. Viability curves combining the best dose of aptamers (25nM) and increasing doses of CDDP. Each experimental group was exposed for 72 h to 6 different CDDP concentrations after aptamers transfection; data were normalized to each untreated control, set to 100% and represent the mean±SD of at least 3 independent experiments performed in quadruplicate at each drug concentration for each cell line analyzed 25nM of aptamers and increasing doses of CDDP in H23S/R cells.\nOnce identified the best dose of aptamers, cells were transfected with aptamers and treated with increased doses of CDDP to assay viability and ROS production as mentioned above. In parallel, for all the experiments, cells were seeded in 24-well plates for aptamers extraction and confirmation of aptamers transfection.\nHEK293 and H23S/R cells were seeded into 96-well plates then transfected with 5, 12.5, 25, 75 and 100 nM of MAFG aptamers or treated with PBS-Mg using Jet Pei PolyPlus transfection reagent (PolyPlus Transfection, USA). The dose of 25 nM aptamer was afterwards used in combination with increased doses of CDDP to assay viability and ROS production as described above. To confirm the aptamer-transfection efficiency cells were seeded in 24-well plates for aptamer isolation and confirmation of aptamer transfection by quantitative analysis. A Myc-DDK-tagged ORF clone of MAFG the negative control pCMV6 were used for in transient transfection (OriGene, USA) in combination with MAFG-aptamers following the same procedure."}, "[4]": {"target": "T4, MAFG peptide M4 (IVQLKQRRRTLKNRGYAASCR) (Homo sapiens, UniProt O15525 SEQ:49-69)", "T4 chain": "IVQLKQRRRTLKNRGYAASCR", "experiment": "ELONA; 20 nM aptamer, 1 ug peptide plated, 37 C 1 h; values only in figure; epitope M4 (residues 57-75 of MAFG)", "conditions": "protein: synthetic; tags: synthetic peptide; label: 5' digoxigenin", "description": "as §1"}},
  "data": [
    {"molecule": "B1", "values": [
      {"measurement": "binding result", "setting": "BSA", "result": "no binding"}
    ]},
    {"molecule": "B2", "values": [
      {"measurement": "interaction of aptamers with the 10 MAFG peptides by ELONA", "setting": "[1]", "result": "recognized peptide M4"},
      {"measurement": "affinity against MAFG", "setting": "MAFG-Myc", "result": "high affinity"},
      {"measurement": "binding capacity to the target", "setting": "MAFG-Myc", "result": "high binding capacity to the target in the nanomolar range"},
      {"measurement": "binding signal relative to BSA protein", "setting": "MAFG-Myc", "result": "four times that of the BSA protein"},
      {"measurement": "cellular localization of the aptamer", "setting": "[2]", "result": "also present in the cytoplasm"},
      {"measurement": "number of dots per nucleus, H23R versus H23S", "setting": "[2]", "result": "remarkable differences"},
      {"measurement": "percentage of positive cells in samples with higher MAFG levels", "setting": "[3]", "result": "significant increment in the percentage of positive cells"},
      {"measurement": "CDDP resistance index after aptamer transfection", "setting": "H23R cells", "result": "no changes"}
    ]},
    {"molecule": "B3", "values": [
      {"measurement": "binding result", "setting": "BSA", "result": "no binding"}
    ]},
    {"molecule": "B4", "values": [
      {"measurement": "interaction of aptamers with the 10 MAFG peptides by ELONA", "setting": "[1]", "result": "recognized peptide M4"},
      {"measurement": "affinity against MAFG", "setting": "MAFG-Myc", "result": "high affinity"},
      {"measurement": "binding capacity to the target", "setting": "MAFG-Myc", "result": "high binding capacity to the target in the nanomolar range"},
      {"measurement": "binding signal relative to BSA protein", "setting": "MAFG-Myc", "result": "four times that of the BSA protein"},
      {"measurement": "number of dots per nucleus, H23R versus H23S", "setting": "[2]", "result": "no differences"},
      {"measurement": "CDDP resistance index after aptamer transfection", "setting": "H23R cells", "result": "no changes"}
    ]},
    {"molecule": "B5", "values": [
      {"measurement": "binding result", "setting": "[4]", "result": "binds"},
      {"measurement": "binding result", "setting": "BSA", "result": "no binding"}
    ]}
  ]
}
